Assay results from patent US20180291088A1.
Values joined by “and” are separate entries in the source; they are usually repeats but may differ in a detail not shown here. Equal values may be shown once.

Tests used:
[1] = biological target: EBOV GP on pseudotyped lentivirus particles (EBOV , Mayinga) (UniProt Q05320); test: cell-based or functional assay
[2] = biological target: EBOV GP on pseudotyped lentivirus particles (EBOV , Mayinga), Q05320; test: cell-based or functional assay
[3] = biological target: EBOV GP , coated on ELISA plates (EBOV , Mayinga) (UniProt Q05320)
[4] = biological target: EBOV GP , coated on ELISA plates (EBOV , Mayinga) (UniProt Q05320); remark: listed apart in the source

Molecule | maximum inhibition of input pseudovirus [2] | EC50 [3] | also measured
13C6 monoclonal antibody | – | – | neutralization of pseudovirus at 10 µg/mL [1]: < 20%
KZ52 monoclonal antibody | – | – | maximum inhibition of input pseudovirus [1]: 80% and 90%
EVB166 monoclonal antibody (antibody, V domains shown) VH: QVQLVQSGAEVKKPGSSVKVSCKTSGGTLSNYAISWVRQAPGQGLEWMGGTIPTLGMSTYAPNFQGRVAITADKSTSTAYMELSSLRSDDTAVYYCATMGSADTSFYFYMDVWGKGTTVTVSS VL: EIVLTQSPGTLSLSPGERATLSCRASQSVSSSYLAWYQQKPGQAPRLLIYGTSSRATGIPDRFSGSASGTDFTLTISRLEPEDFAVYYCQQYAYSPFTFGPGTKVDIK | 100% | – | –
EVB165 monoclonal antibody (antibody, V domains shown) VH: DVQLVESGGGVVQPGGSLKLACVVSGFRFSDYWMSWVRQAPGKGLEWVANIKQDGSGKYYVDSVKGRFTVSRDNAKNSLYLHMTSLGAEDTAVYFCARAAPTGSYTNILVDNVHFDYWGQGILVAVSS VL: GIQLTQSPGSLSASVGDSVTITCRPNQNIATYINWYQQTPGKAPKLLIYAASILQSGVPSRFSGAGSGTHFTLIISTLQPEDSATYYCQQSYSTPWTFGQGTKVEIK | 100% | > 1 µg/mL | Abs 450 [4]: 3.17 A450 and 1.72 A450
EVB114 monoclonal antibody (antibody, V domains shown) VH: EVQLVESGGGLIQPGGSLRLSCAASGFALRMYDMHWVRQTIDKRLEWVSAVGPSGDTYYADSVKGRFAVSRENAKNSLSLQMNSLTAGDTAIYYCVRSDRGVAGLFDSWGQGILVTVSS VL: DIQMTQSPSSLSASVGDRITITCRASQAFDNYVAWYQQRPGKVPKLLISAASALHAGVPSRFSGSGSGTHFTLTISSLQPEDVATYYCQNYNSAPLTFGGGTKVEIK | 100% | 0.07 µg/mL | maximal binding, higher than the other mAbs [3]: 100%
EVB100 monoclonal antibody (antibody, V domains shown) VH: QVQLQESGPGLVKPSDTLSLTCTVSGGSLSSFYWSWIRQPPGKGLEWIGYIYYSGSPNYSPSLESRVTMSVDTTRNQISLKLDSVTAADTAVYYCVRASRSYYWGSYRPTAFDSWGQGTLVTVSS VL: SYELTQPLSVSVSPGQTAIFTCSGDNLGDKYVCWFQQRPGQSPMLLIYQDNKRPSGIPERFSGSNSGNTATLTISGTQSTDEADYYCQTWDSTVVFGGGTKLTVL | 100% | 0.26 µg/mL | –
EVB167 monoclonal antibody (antibody, V domains shown) VH: AVQLVQSGAEVKKPGTTVKISCKVSGYTFIQEYIHWVQQAPGKGLVWMGLGDPENNETLYSEDFQGRVTMTADTSSDTAYLELRSLTFADTAVYFCTSRKSWWGQGTLVTVAS VL: ELVLTQSPGTLSLSPGESATLSCRASQSLSSDSVSWFQQKPGQAPRLVIHGTSKRATGIPDRFSGGGSGTDFTLTIARLEPEDFAVYYCQRSGYGMSVTWTFGQGTTVEIK | – | – | Abs 450 [4]: 3.37 A450 and 2.97 A450
